The results in this text go back to patent publication US20180355014A1.

In one assay the target is HLA-A*11:01 (human). Put plainly: REVEAL MHC-peptide binding assay, recombinant HLA-A*11:01. Particulars: remark: other sources report otherwise.
A further assay concerns the target HLA-B*08:01 (human). Put plainly: REVEAL MHC-peptide binding assay, recombinant HLA-B*08:01. Particulars: remark: other sources report otherwise.

Consider WVKRGHKKL [… (SEQ ID NO: 68)], for which the In Vitro Score (% of positive control peptide) with HLA-A*11:01 (human) stood at 2.8; with HLA-B*08:01 (human), 47.6. Turning to IFWVQRGNK [… (SEQ ID NO: 86)], the In Vitro Score (% of positive control peptide) came out at 67.5 with HLA-A*11:01 (human) and 0.1 with HLA-B*08:01 (human). Turning to IIFWVARGR [… (SEQ ID NO: 46)], the In Vitro Score (% of positive control peptide) with HLA-A*11:01 (human) was 70.6; with HLA-B*08:01 (human) it was 0.3. Regarding IIFWVKRGA [… (SEQ ID NO: 69)], the figures for the In Vitro Score (% of positive control peptide) with HLA-A*11:01 (human) and with HLA-B*08:01 (human) were 22.6 and 0.9, respectively. With IFWVARGRK [… (SEQ ID NO: 47)], the In Vitro Score (% of positive control peptide) stood at 34.9 with HLA-A*11:01 (human) and 0 with HLA-B*08:01 (human). Consider IFWVQRGRK [… (SEQ ID NO: 54)], for which the results for the In Vitro Score (% of positive control peptide) with HLA-A*11:01 (human) and with HLA-B*08:01 (human) were 128 and 0, respectively.

With IIFWVKRGN [… (SEQ ID NO: 73)], the results for the In Vitro Score (% of positive control peptide) in the assay with HLA-A*11:01 (human) and in the assay with HLA-B*08:01 (human) were 42.1 and 0.9, respectively. On to AFIIFWVHR [… (SEQ ID NO: 38)], for which, in the assay with HLA-A*11:01 (human), the In Vitro Score (% of positive control peptide) was determined as 34.9.

Take WVQRGNKKL [… (SEQ ID NO: 88)]: the In Vitro Score (% of positive control peptide) in the assay with HLA-A*11:01 (human) was determined as 10.7; with HLA-B*08:01 (human), 32.

For the molecule IIFWVQRGR [… (SEQ ID NO: 53)], the In Vitro Score (% of positive control peptide) with HLA-A*11:01 (human) was 72.8; in the assay with HLA-B*08:01 (human), 0.1. For the molecule VAFIIFWVS [… (SEQ ID NO: 23)], the results for the In Vitro Score (% of positive control peptide) with HLA-A*11:01 (human) and in the assay with HLA-B*08:01 (human) were 25.1 and 0.1, respectively. For VAFIIFWVK [… (SEQ ID NO: 16)], the figures for the In Vitro Score (% of positive control peptide) with HLA-A*11:01 (human) and with HLA-B*08:01 (human) were 109 and 0.3, respectively. For WVARGRKKL [… (SEQ ID NO: 49)], the In Vitro Score (% of positive control peptide) stood at 13.8 in the assay with HLA-A*11:01 (human) and 32.4 with HLA-B*08:01 (human). In the case of IFWVKRGNK [… (SEQ ID NO: 74)], the values for the In Vitro Score (% of positive control peptide) with HLA-A*11:01 (human) and with HLA-B*08:01 (human) were 45.9 and 0.1, respectively. On to FIIFWVHRG [… (SEQ ID NO: 39)], for which the In Vitro Score (% of positive control peptide) in the assay with HLA-A*11:01 (human) turned out to be 0.9; in the assay with HLA-B*08:01 (human), 0.2.

Take IFWVKRGHK [… (SEQ ID NO: 66)]: the In Vitro Score (% of positive control peptide) with HLA-A*11:01 (human) was determined as 30.9; with HLA-B*08:01 (human) it was 3.2.

For IIFWVQRGA [… (SEQ ID NO: 81)], the In Vitro Score (% of positive control peptide) was 56.5 with HLA-A*11:01 (human) and 0.2 with HLA-B*08:01 (human). As for IFWVHRGRK [… (SEQ ID NO: 41)], the In Vitro Score (% of positive control peptide) in the assay with HLA-A*11:01 (human) was 36.6; in the assay with HLA-B*08:01 (human), 0.1. Regarding IFWVKRGLK [… (SEQ ID NO: 62)], the In Vitro Score (% of positive control peptide) with HLA-A*11:01 (human) worked out at 61.1; with HLA-B*08:01 (human) it was 58.3. Take IIFWVSRGR [… (SEQ ID NO: 26)]: the In Vitro Score (% of positive control peptide) is 68.9 with HLA-A*11:01 (human) and 0 with HLA-B*08:01 (human).

On to IFWVKRGSK [… (SEQ ID NO: 58)], for which the In Vitro Score (% of positive control peptide) was found to be 47.9 with HLA-A*11:01 (human) and 1.2 with HLA-B*08:01 (human). For the molecule AFIIFWVSR [… (SEQ ID NO: 24)], in the assay with HLA-A*11:01 (human), the In Vitro Score (% of positive control peptide) turned out to be 54. As to WVQRGRKKL [… (SEQ ID NO: 56)], the In Vitro Score (% of positive control peptide) with HLA-A*11:01 (human) is 12.8; with HLA-B*08:01 (human), 45.1. Consider IIFWVKRGR [… (SEQ ID NO: 19)], for which the In Vitro Score (% of positive control peptide) is 54.5 in the assay with HLA-A*11:01 (human) and 0 with HLA-B*08:01 (human). WVKRGSKKL [… (SEQ ID NO: 60)]: the In Vitro Score (% of positive control peptide) with HLA-A*11:01 (human) was 11.8; with HLA-B*08:01 (human), 56.1. For the molecule WVKRGAKKL [… (SEQ ID NO: 72)], the In Vitro Score (% of positive control peptide) with HLA-A*11:01 (human) came to 4.6; in the assay with HLA-B*08:01 (human), 34.1.

On to IIFWVHRGR [… (SEQ ID NO: 40)], for which the In Vitro Score (% of positive control peptide) with HLA-A*11:01 (human) came out at 77.5; with HLA-B*08:01 (human) it was 0.2. On to IIFWVKRGL [… (SEQ ID NO: 61)], for which the figures for the In Vitro Score (% of positive control peptide) in the assay with HLA-A*11:01 (human) and with HLA-B*08:01 (human) were 32.4 and 1.7, respectively.

On to IFWVSRGRK [… (SEQ ID NO: 27)], for which the In Vitro Score (% of positive control peptide) in the assay with HLA-B*08:01 (human) was 0. As for IFWVKRGAK [… (SEQ ID NO: 70)], the In Vitro Score (% of positive control peptide) was 69.7 in the assay with HLA-A*11:01 (human) and 2.2 in the assay with HLA-B*08:01 (human). Turning to IIFWVLRGR [… (SEQ ID NO: 33)], the In Vitro Score (% of positive control peptide) came out at 35.2 with HLA-A*11:01 (human) and 0.4 in the assay with HLA-B*08:01 (human). On the same counts, the results for WVKRGNKKL [… (SEQ ID NO: 76)] are 4.1 and 65.9. Consider AFIIFWVAR [… (SEQ ID NO: 45)], for which the In Vitro Score (% of positive control peptide) came out at 51.8 in the assay with HLA-A*11:01 (human) and 0.2 with HLA-B*08:01 (human). For IIFWVKRGS [… (SEQ ID NO: 57)], in the assay with HLA-B*08:01 (human), the In Vitro Score (% of positive control peptide) was found to be 0.4.

Take IFWVQRGAK [… (SEQ ID NO: 82)]: the In Vitro Score (% of positive control peptide) with HLA-A*11:01 (human) turned out to be 61.3; with HLA-B*08:01 (human), 0.2.
